Assay results from patent publication EP4484444A1 (Centre National de la Recherche Scientifique, dated 2025).
Each block holds one binder with its values, some of them ahead of it.

B4: recombinant human PCPE-2 (procollagen C-proteinase enhancer 2) fused to a 6 Histidine-tag at the N-terminus (other)
chain: HHHHHHQSPERPVFTCGGILTGESGFIGSEGFPGVYPPNSKCTWKITVPEGKVVVLNFRFIDLESDNLCRYDFVDVYNGHANGQRIGRFCGTFRPGALVSSGNKMMVQMISDANTAGNGFMAMFSAAEPNERGDQYCGGLLDRPSGSFKTPNWPDRDYPAGVTCVWHIVAPKNQLIELKFEKFDVERDNYCRYDYVAVFNGGEVNDARRIGKYCGDSPPAPIVSERNELLIQFLSDLSLTADGFIGHYIFRPKKLPTTTEQPVTTTFPVTTGLKPTVALCQQKCRRTGTLEGNYCSSDFVLAGTVITTITRDGSLHATVSIINIYKEGNLAIQQAGKNMSARLTVVCKQCPLLRRGLNYIIMGQVGEDGRGKIMPNSFIMMFKTKNQKLLDALKNKQC
notes: Produced in HEK 293-T cells from pHLsec; Used as analyte and as immobilized ligand in SPR and in the activity assays; also called full-length PCPE-2

Columns and labels:
[1] = target: T1, mini-procollagen III (fused to a N-terminal c-myc tag) (UniProt P02461 1098-1466); experiment: SPR, analyte over immobilized mini-procollagen III (435 RU)
T1 construct: also called Mini-III; not shown: N-terminal c-myc tag

[2] = target: T2, human BMP-1 (bone morphogenetic protein-1) fused to a C-terminal Flag tag (human, UniProt P13497-2 121-730, limits assumed); experiment: SPR, analyte over immobilized BMP-1 (974 RU)
T2 construct: Produced in HEK 293-EBNA cells; also called full-length BMP-1; not shown: C-terminal Flag tag
T2 sequence (looked up): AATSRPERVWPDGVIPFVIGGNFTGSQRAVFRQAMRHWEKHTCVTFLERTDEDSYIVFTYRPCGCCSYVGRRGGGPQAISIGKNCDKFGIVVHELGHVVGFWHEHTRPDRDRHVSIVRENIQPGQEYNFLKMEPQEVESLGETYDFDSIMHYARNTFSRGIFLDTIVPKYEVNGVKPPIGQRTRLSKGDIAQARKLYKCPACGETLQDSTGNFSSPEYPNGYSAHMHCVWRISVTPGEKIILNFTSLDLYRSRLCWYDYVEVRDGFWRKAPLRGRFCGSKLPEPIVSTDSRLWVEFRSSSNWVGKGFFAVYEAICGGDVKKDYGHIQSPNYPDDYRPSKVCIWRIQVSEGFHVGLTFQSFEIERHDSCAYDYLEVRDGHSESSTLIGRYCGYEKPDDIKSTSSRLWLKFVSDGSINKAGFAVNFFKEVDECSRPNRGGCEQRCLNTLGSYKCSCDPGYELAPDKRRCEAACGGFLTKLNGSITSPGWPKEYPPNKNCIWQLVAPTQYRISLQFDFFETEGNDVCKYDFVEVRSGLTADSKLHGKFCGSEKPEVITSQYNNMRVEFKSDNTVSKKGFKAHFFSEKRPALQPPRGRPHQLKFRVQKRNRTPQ

[3] = target: B4; experiment: SPR, PCPE-2 over immobilized C-propeptide III (351 RU)
[4] = target: B4; experiment: SPR, analyte over immobilized PCPE-2 (646 RU)
[5] = target: T2, human BMP-1 (bone morphogenetic …); experiment: inhibition of BMP-1 (7 nM) cleavage of the fluorogenic peptide Mca-YVADAPK(Dnp)-OH, Morrison equation (apparent Ki)
[6] = target: T2, human BMP-1 (bone morphogenetic …); experiment: SPR, PCPE-2 1.56-100 nM over immobilized BMP-1 (974 RU), steady-state fit
[7] = target: CPIII-Long (model substrate derived from procollagen III); experiment: cell-based or functional assay
[8] = target: T1, mini-procollagen III (fused to a …); experiment: SPR, CUB1CUB2* 0.78-50 nM over immobilized mini-procollagen III (435 RU)
[9] = target: T2, human BMP-1 (bone morphogenetic …); experiment: SPR, C1-C2* 1.56-100 nM over immobilized BMP-1 (974 RU), steady-state fit
[10] = target: T2, human BMP-1 (bone morphogenetic …); experiment: SPR over immobilized BMP-1
[11] = target: T2, human BMP-1 (bone morphogenetic …); experiment: SPR (Figure 65)
[12] = target: T1, mini-procollagen III (fused to a …); experiment: SPR, analyte over immobilized mini-procollagen III (437 RU)

binding result [1]: no binding (tested: 200 nM) | binding result [2]: no binding (tested: 50 nM)
B1: NTR domain of PCPE-2 (other, human, UniProt Q9UKZ9 297-415, looked up)
chain: CQQKCRRTGTLEGNYCSSDFVLAGTVITTITRDGSLHATVSIINIYKEGNLAIQQAGKNMSARLTVVCKQCPLLRRGLNYIIMGQVGEDGRGKIMPNSFIMMFKTKNQKLLDALKNKQC
notes: domain: NTR

Kd [3]: 45 nM
B2: C-propeptide III (C-propeptide of procollagen III) (other, UniProt P02461 1222-1466, looked up)
chain: DEPMDFKINTDEIMTSLKSVNGQIESLISPDGSRKNPARNCRDLKFCHPELKSGEYWVDPNQGCKLDAIKVFCNMETGETCISANPLNVPRKHWWTDSSAEKKHVWFGESMDGGFQFSYGNPELPEDVLDVHLAFLRLLSSRASQNITYHCKNSIAYMDQASGNVKKALKLMGSNEGEFKAEGNSKFTYTVLEDGCTKHTGEWSKTVFEYRTRKAVRLPIVDIAPYDIGGPDQEFGVDVGPVCFL
notes: domain: C-propeptide; Described as an uncleavable substrate mimic; Immobilized in SPR (351 RU); also called C-propeptide of collagen III

binding result [4]: no binding (tested: 50 nM)
B3: catalytic domain of BMP-1 (enzyme, UniProt P13497 121-320, looked up)
chain: AATSRPERVWPDGVIPFVIGGNFTGSQRAVFRQAMRHWEKHTCVTFLERTDEDSYIVFTYRPCGCCSYVGRRGGGPQAISIGKNCDKFGIVVHELGHVVGFWHEHTRPDRDRHVSIVRENIQPGQEYNFLKMEPQEVESLGETYDFDSIMHYARNTFSRGIFLDTIVPKYEVNGVKPPIGQRTRLSKGDIAQARKLYKCP
notes: domain: catalytic domain; also called BMP-1cat

Binder: B4
Ki [5]: 2.8 nM | Kd [6]: 8.4 nM | maximum enhancement factor of CPIII-Long processing by BMP-1 (ratios 0:1 to 6:1) [7]: 1.3 fold

Kd [8]: ~30 nM | Kd [9]: 28 nM
B5: CUB1CUB2* domains of PCPE-2 (other)
chain: GPASQSPERPVFTCGGILTGESGFIGSEGFPGVYPPNSKCTWKITVPEGKVVVLNFRFIDLESDNLCRYDFVDVYNGHANGQRIGRFCGTFRPGALVSSGNKMMVQMISDANTAGNGFMAMFSAAEPNERGDQYCGGLLDRPSGSFKTPNWPDRDYPAGVTCVWHIVAPKNQLIELKFEKFDVERDNYCRYDYVAVFNGGEVNDARRIGKYCGDSPPAPIVSERNELLIQFLSDLSLTADGFIGHYIFRPKLEVLFQ
notes: Two O-glycosylated forms are seen on the gel; also called C1-C2*; the CUB domains of PCPE-2

binding result [10]: binds
B6: C2NTR (CUB2 and NTR domains of PCPE-2) (other)
chain: ETGHHHHHHCGGLLDRPSGSFKTPNWPDRDYPAGVTCVWHIVAPKNQLIELKFEKFDVERDNYCRYDYVAVFNGGEVNDARRIGKYCGDSPPAPIVSERNELLIQFLSDLSLTADGFIGHYIFRPKKLPTTTEQPVTTTFPVTTGLKPTVALCQQKCRRTGTLEGNYCSSDFVLAGTVITTITRDGSLHATVSIINIYKEGNLAIQQAGKNMSARLTVVCKQCPLLRRGLNYIIMGQVGEDGRGKIMPNSFIMMFKTKNQKLLDALKNKQC
notes: also called CUB2NTR

binding result [11]: binds | binding result [12]: no binding (tested: 50 nM)
B7: C1(R44A,F78A,R79D)-C2(L101A) (other)
chain: GPASQSPERPVFTCGGILTGESGFIGSEGFPGVYPPNSKCTWKITVPEGKVVVLNFAFIDLESDNLCRYDFVDVYNGHANGQRIGRFCGTADPGALVSSGNKMMVQMISDANTAGNGFMAMFSAAEPNERGDQYCGGLLDRPSGSFKTPNWPDRDYPAGVTCVWHIVAPKNQLIELKFEKFDVERDNYCRYDYVAVFNGGEVNDARRIGKYCGDSPPAPIVSERNELLIQFLSDASLTADGFIGHYIFRPKKLEHHHHHH
notes: also called C1-C2 with the combination of the 4 mutations
